Measurements from US20250136677A1 (ZOETIS SERVICES, published 2025).

Legend:
[1] = biological target: T1, wildtype feline IL-31 protein (Feline_IL31_wildtype) (feline); assay: cell-based or functional assay
T1 chain: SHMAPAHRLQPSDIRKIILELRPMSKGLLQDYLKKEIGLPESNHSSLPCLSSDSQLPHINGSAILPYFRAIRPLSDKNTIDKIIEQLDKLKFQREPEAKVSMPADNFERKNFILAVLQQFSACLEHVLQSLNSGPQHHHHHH

[2] = biological target: T1, wildtype feline IL-31 protein …; assay: SPR (Biacore), feline IL-31 (SEQ ID NO 157)
Description: The affinity with which candidate mAbs bind canine and feline IL-31 was determined using surface plasmon resonance (SPR) on a Biacore system (Biocore Life Sciences (GE Healthcare), Uppsala, Sweden). To avoid affinity differences associated with differential surface preparation that can occur when immobilizing antibodies to surfaces; a strategy was employed where IL-31 was directly conjugated to the surface. Immobilization was obtained by amine coupling 5 μg/mL IL-31 using N-hydroxysuccinimide (NHS)/1-Ethyl-3-(3-dimethylaminopropyl) carbodiimide (EDC) chemistry. Chips were quenched with ethanolamine and the affinity with which all candidate mAbs bound to the immobilized IL-31 was evaluated. All curves were fit to a 1:1 model. […] Results for affinity measurements are described herein.
Cellular potency was assessed using feline IL-31 to stimulate pSTAT3 signalling in FCFW4 cells. IC₅₀ vlaues were calculated for each antibody as described previously in this application. […] It is worth noting that both antibodies are considered potent with IC₅₀s in the range of those antibodies previously described herein from the 15H05 lineage (FIG. 3).

[3] = biological target: T2, wildtype feline IL-31 protein (Feline_IL31_wildtype) (feline); assay: Biacore, feline IL-31 chip, mAb 100 nM, share of points within parent mean +/-3 SD
T2 sequence: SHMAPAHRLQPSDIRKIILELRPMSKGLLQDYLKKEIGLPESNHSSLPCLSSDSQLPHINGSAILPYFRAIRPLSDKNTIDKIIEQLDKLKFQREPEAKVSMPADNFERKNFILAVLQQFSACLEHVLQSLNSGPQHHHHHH

[4] = biological target: T2, wildtype feline IL-31 protein (Feline_IL31_wildtype) (feline)
[5] = biological target: T1, wildtype feline IL-31 protein …; assay: cell-based or functional assay
[6] = biological target: T3, canine IL-31 protein (Canine_IL31) (canine); assay: cell-based or functional assay
T3 chain: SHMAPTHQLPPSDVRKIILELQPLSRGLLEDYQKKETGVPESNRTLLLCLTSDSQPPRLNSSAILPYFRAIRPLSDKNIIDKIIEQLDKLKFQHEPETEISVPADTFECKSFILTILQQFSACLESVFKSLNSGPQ

[7] = biological target: T1, wildtype feline IL-31 protein …; assay: cell-based or functional assay
[8] = biological target: T3, canine IL-31 protein (Canine_IL31)
[9] = biological target: T4, human IL-31 (human, UniProt Q6EBC2 24-164); assay: SPR (Biacore), IL-31 surface, single antibody concentration
T4 sequence: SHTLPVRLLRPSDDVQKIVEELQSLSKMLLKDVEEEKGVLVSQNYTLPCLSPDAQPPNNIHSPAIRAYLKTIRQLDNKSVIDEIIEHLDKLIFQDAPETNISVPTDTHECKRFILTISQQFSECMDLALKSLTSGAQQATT
Description: (§1) For the indirect ELISA method, antibody binding to wildtype and feline IL-31 15H05 mutant proteins was assessed. All nine canine monoclonal antibodies (ZIL1, ZIL8, ZIL8, ZIL11, ZIL69, ZIL94, ZIL154, ZIL159, and ZIL171) were capable of binding to wildtype feline IL-31 and binding was impacted by mutations in the mAb 15H05 epitope region confirming the correct binding phenotype determined during the initial screening used to identify them. In comparison, the 11E12 antibody bound to the wild-type feline IL-31 and its binding was not impacted by the mutations in the 15H05 epitope region as evidenced by the data in FIG. 4. To confirm binding, biacore analysis was performed using canine, feline, equine, human, feline 15H05 mutant, and feline 11E12 mutant IL-31 proteins as surfaces and a single test concentration of antibody. Similar to ELISA observations, all antibodies tested bound to wildtype feline IL-31. In agreement with the data described above in this section, mouse antibodies 11E12 and 15H05 both bound to canine and feline IL-31 surfaces. Three additional antibodies where shown to have this dual binding property, ZIL69 (partial canine binding), ZIL94, and ZIL159. From this group of nine fully canine antibodies, only ZIL1 and ZIL9 cross-reacted with equine IL-31. Of note, antibody 15H05 was the only one of all assayed herein that bound to canine, feline, and equine IL-31 indicating some level of epitope conservation across the three species. In contrast, none of the antibodies described herein bound to human IL-31. Additional biacore surfaces were used to verify ELISA observations showing differential binding of antibodies to wildtype feline IL-31 and two proteins with mutations in the 15H05 (15H05 mutant) or 11E12 (11E12 mutant) epitopes.

[10] = biological target: T5, equine IL-31 protein (Equine_IL31) (equine); assay: as above
T5 construct: Recombinant equine IL-31
T5 chain: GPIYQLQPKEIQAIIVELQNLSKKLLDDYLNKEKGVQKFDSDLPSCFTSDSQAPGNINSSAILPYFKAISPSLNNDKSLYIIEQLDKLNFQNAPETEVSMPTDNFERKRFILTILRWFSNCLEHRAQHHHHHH
Description: as §1

[11] = biological target: T6, mutant feline IL-31 15H05 protein (Feline_IL31_15H05_mutant) (feline); assay: indirect ELISA, IL-31 protein coated
T6 construct: also called feline 15H05 mutant; 15H05 IL-31 mutant
T6 chain: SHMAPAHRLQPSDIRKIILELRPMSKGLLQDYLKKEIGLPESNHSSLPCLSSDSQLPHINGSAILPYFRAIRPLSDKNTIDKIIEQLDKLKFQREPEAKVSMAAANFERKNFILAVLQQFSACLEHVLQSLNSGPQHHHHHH
Description: as §1, with “epitopes. […] In agreement with the ELISA results, all fully canine antibodies were impacted by the 15H05 mutation with the exception of ZIL94, ZIL154, and ZIL171 (partially affected). Differing results can be attributed to differences in the two assay methodologies.” for “epitopes.”

[12] = biological target: T1, wildtype feline IL-31 protein …; assay: indirect ELISA, IL-31 protein coated
Description: as §1, with “epitopes. […] In agreement with the ELISA results, all fully canine antibodies were impacted by the 15H05 mutation with the exception of ZIL94, ZIL154, and ZIL171 (partially affected). Differing results can be attributed to differences in the two assay methodologies.” for “epitopes.”

[13] = biological target: T3, canine IL-31 protein (Canine_IL31); assay: SPR (Biacore), IL-31 on chip, 1:1 fit
[14] = biological target: T1, wildtype feline IL-31 protein …; assay: SPR (Biacore), IL-31 on chip, 1:1 fit
Procedure, shortened: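 IL-31 was amine-coupled (NHS/EDC) to the chip at 5 μg/mL and quenched with ethanolamine, and candidate mAbs were flowed over it as analytes. Binding curves were fitted to a 1:1 model.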

B1: ZTS-5865 (antibody, V domains shown)
VH: DVQLVESGGDLVKPGGSLRLTCVASGFTFSDYAMNWVRQAPGKGLQWVAGIDSVGSGTSYADSVKGRFTISRDNAKNTLYLQMSGLKTEDTATYYCASGFPGSFEHWGQGTLVTVSS
VL: QSVLTQPSSVSGTLGQRITISCTGSSSNIGSGYVGWYQQVPGMGPKTVIYYNSDRPSGVPDRFSGSKSGSSGTLTITGLQAEDEADYYCSVYDRTFNAVFGGGTHLTVLG
notes: see recheck
B1 was tested, and the “IC50, inhibition of feline IL-31 induced pSTAT3 in feline FCWF4 cells” value [1] was 9.08 µg/ml, the Kd [2] was 2.12 nM and the kon [2] was 76200 M⁻¹ s⁻¹.

B2: A14 (antibody, V domains shown)
VH: QVLLVQSGAEVRTPGASVKIFCKASGYSFTSYTIHWLRQAPAQGLEWMGNINPTSGYTENNQRFKDRLTLTADTSTNTAYMELSSLRSADTAMYYCARWGFKYDGEWSFDVWGAGTTVTVSS
VL: EIQMTQSPSSLSASPGDRVTITCRASQGISIWLSWYQQKPGNIPKVLIAKASNLHIGVPSRFSGSGSGTDFTLTISSLEPEDAATYYCLQSQTYPLTFGGGTKLEIK
In the case of B2, the Binding Similarity score [3] is reported as 8.4 and the % Inhibition Relative to Parent (pSTAT, FCWF-4 cells) [4] is reported as -5.4%.

B3: A22 (antibody, V domains shown)
VH: QVLLVQSGAEVRTPGASVKIFCKASGYSFTSYTIHWLRQAPAQGLEWMGNINPTSGYTENNQRFKDRLTLTADTSTNTAYMELSSLRSADTAMYYCARWGFKYDGEWSFDVWGAGTTVTVSS
VL: EIQMTQSPSSLSASPGDRVTITCRASQGISIWLSWYQQKPGNIPKVLINKASNLHIGVPSRFSGSGSGTDFTLTISSLEPEDAATYYCLQAQTYPLTFGGGTKLEIK
Work on B3 yielded a Binding Similarity score [3] of 8.34 and a % Inhibition Relative to Parent (pSTAT, FCWF-4 cells) [4] of -4.3%.

B4: 15H05 mouse:canine chimera (antibody)
heavy: QVQLQQSAAELARPGASVKMSCKTSGYTFTSYTIHWIKQRPGQGLEWIGNINPTSGYTENNQRFKDKTTLTVDRSSNTAYLQLHSLTSEDSAVYFCARWGFKYDGEWSFDVWGAGTTVTVSSASTTAPSVFPLAPSCGSTSGSTVALACLVSGYFPEPVTVSWNSGSLTSGVHTFPSVLQSSGLYSLSSMVTVPSSRWPSETFTCNVAHPASKTKVDKPVPKRENGRVPRPPDCPKCPAPEMLGGPSVFIFPPKPKDTLLIARTPEVTCVVVDLDPEDPEVQISWFVDGKQMQTAKTQPREEQFNGTYRVVSVLPIGHQDWLKGKQFTCKVNNKALPSPIERTISKARGQAHQPSVYVLPPSREELSKNTVSLTCLIKDFFPPDIDVEWQSNGQQEPESKYRTTPPQLDEDGSYFLYSKLSVDKSRWQRGDTFICAVMHEALHNHYTQESLSHSPGK
light: DIQMNQSPSSLSASLGDTITVTCRASQGISIWLSWYQQKPGNIPKVLINKASNLHIGVPPRFSGSGSGTHFTLTITSLQPEDIATYYCLQSQTYPLTFGGGTKLEINRNDAQPAVYLFQPSPDQLHTGSASVVCLLNSFYPKDINVKWKVDGVIQDTGIQESVTEQDKDSTYSLSSTLTMSSTEYLSHELYSCEITHKSLPSTLIKSFQRSEC
B4 was tested, and the “IC50, feline IL-31 signaling on the canine DH82 cell line (pSTAT3)” value [5] was 0.71 µg/ml, the IC50 against canine IL-31 (pSTAT3; cell type not stated for this pair of values) [6] was 12.5 µg/ml and the “IC50, inhibition of feline IL-31-induced STAT3 phosphorylation, feline FCWF4 cells” value [7] was 3.11 µg/mL. For the same binder, the IC50, inhibition of canine IL-31-induced STAT3 phosphorylation, canine DH82 cells [8] was 12.7 µg/mL.

B5: mouse anti IL-31 antibody 11E12 (antibody, V domains shown)
VH: QVQLQQSGAELVKPGASVKLSCKASGYTFKYYDINWVRQRPEQGLEWIGWIFPGDGGTKYNETFKGKATLTTDKSSSTAYMQLSRLTSEDSAVYFCARGGTSVIRDAMDYWGQGTSVTVSS
VL: DIVLTQSPASLAVSLGQRATISCRASESVDNYGISFMHWYQQKPGQPPKLLIYRASNLESGIPARFSGSGSRTDFTLTINPVETDDVATYYCQQSNKDPLTFGAGTKLELK
notes: Mouse monoclonal comparison antibody; also called MU-11E12; mouse 11E12
With B5 the binding result [9] was “no binding”, the binding result [10] was “no binding” and the “ELISA OD” value [11] was 1.33 OD. The “ELISA OD” value [12] was 1.15 OD, the “IC50, inhibition of feline IL-31-induced STAT3 phosphorylation, canine DH82 cells” value [7] was 2.47 µg/mL and the “IC50, inhibition of feline IL-31-induced STAT3 phosphorylation, feline FCWF4 cells” value [7] was 2.01 µg/mL. The Kd [13] was 0.000763 nM, the koff [13] was 4.8e-07 s⁻¹ and the kon [13] was 629000 M⁻¹ s⁻¹. For the same binder, the Kd [14] was 0.738 nM, the koff [14] was 0.000123 s⁻¹ and the kon [14] was 167000 M⁻¹ s⁻¹.

B6: ZIL94 (recombinant fully canine antibody) (antibody, V domains shown)
VH: EVQLVDSGGDLVKPGGSLRLSCVASGFTFSTYFMSWVRQAPGRGLQWVALISSDGSGTYYADAVKGRFTISRDNAKNTLYLQMNSLRAEDTAMYYCAIFWRAFNDWGQGTLVTVSS
VL: QTVVIQEPSLSVSPGGTVTLTCGLNSGSVSTSNYPGWYQQTRGRTPRTIIYDTGSRPSGVPNRFSGSISGNKAALTITGAQPEDEADYYCSLYTDSDILVFGGGTHLTVLR
notes: also called CAN-ZIL94
With B6 the binding result [10] was “no binding”, the “ELISA OD” value [11] was 1.3 OD and the “ELISA OD” value [12] was 1.67 OD.
